Values of other authors, collected in publication PMC2696053.
pKd: −log10 of the molar value.

What was measured:
[1] = biological target: Delta-like 1 (Homo sapiens) (UniProt O00548); assay: surface plasmon resonance
[2] = biological target: Delta ECD (Drosophila melanogaster) (UniProt P10041); assay: ELISA
Sequence of UniProt P10041 (P10041 19-596, stated change not applied): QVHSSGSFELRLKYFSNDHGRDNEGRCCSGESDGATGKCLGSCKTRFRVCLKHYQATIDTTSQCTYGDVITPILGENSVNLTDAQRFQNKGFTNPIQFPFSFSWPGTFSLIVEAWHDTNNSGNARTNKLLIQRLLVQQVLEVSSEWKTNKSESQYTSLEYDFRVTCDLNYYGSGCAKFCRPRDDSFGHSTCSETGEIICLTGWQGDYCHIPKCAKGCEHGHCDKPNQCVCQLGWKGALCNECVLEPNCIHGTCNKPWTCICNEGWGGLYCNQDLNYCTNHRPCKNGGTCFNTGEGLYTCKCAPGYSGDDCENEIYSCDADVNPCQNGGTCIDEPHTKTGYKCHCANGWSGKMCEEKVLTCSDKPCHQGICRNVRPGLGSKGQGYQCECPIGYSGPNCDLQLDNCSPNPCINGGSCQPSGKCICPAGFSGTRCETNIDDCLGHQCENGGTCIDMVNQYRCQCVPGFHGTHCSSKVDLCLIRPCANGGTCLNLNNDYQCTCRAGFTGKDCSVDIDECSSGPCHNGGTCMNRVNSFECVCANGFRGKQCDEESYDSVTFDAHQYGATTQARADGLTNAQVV

Sequence of UniProt O00548 (O00548 18-545, stated change not applied): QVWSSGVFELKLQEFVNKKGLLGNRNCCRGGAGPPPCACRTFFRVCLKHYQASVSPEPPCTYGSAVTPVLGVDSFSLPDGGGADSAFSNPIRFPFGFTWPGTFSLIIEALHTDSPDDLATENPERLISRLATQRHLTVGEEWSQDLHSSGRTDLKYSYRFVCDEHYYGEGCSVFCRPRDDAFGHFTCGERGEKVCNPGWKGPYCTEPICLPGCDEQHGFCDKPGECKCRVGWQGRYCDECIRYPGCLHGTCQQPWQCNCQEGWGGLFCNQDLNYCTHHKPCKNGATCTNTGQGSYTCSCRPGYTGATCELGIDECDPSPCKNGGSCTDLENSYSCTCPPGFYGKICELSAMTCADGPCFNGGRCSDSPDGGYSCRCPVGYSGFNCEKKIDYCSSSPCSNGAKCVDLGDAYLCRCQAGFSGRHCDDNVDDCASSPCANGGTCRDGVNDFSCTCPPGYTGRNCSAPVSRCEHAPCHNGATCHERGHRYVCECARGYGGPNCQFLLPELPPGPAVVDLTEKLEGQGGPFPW

Substance	pKd [1]	pKd [2]
Notch1 EGF-like repeats 11-14 (from UniProt P46531)	3.89	
Notch EGF-like repeats 11-20 (from UniProt P07207)		8.73
